Reference: PMC8188212, “Multi‐Arm PEG/Peptidomimetic Conjugate Inhibitors of DR6/APP Interaction Block Hematogenous Tumor Cell Extravasation” (Advanced Science, 2021)
Square brackets hold non-standard residues; d marks the D form. Side chains are listed from the residue outwards. Ends that are not written are not given here. maleimide = maleimide: 4-arm PEG5k maleimide reacting with the C-terminal Cys thiol

Experiments:
[1] = target: T1, DR6/APP interaction (B16F10, SGC-996, LLC1 TCs on DR6 protein coated plates) (Homo sapiens, UniProt O75509); assay: Cell attachment of TCs to DR6-coated plates; format: cell-based; settings: 1 h at 37 °C, crystal violet, microplate reader, n = 3
T1 construct: His tag (inferred from RED-tris-NTA labelling of the same purchased protein in the MST assay); purchased Sino Biology, Inc. (Shanghai, China); host or cells: DR6 coated on 96-well plates; tumour cells B16F10, SGC-996, LLC1 carry endogenous APP
T1 sequence (O75509 42-349 limits assumed): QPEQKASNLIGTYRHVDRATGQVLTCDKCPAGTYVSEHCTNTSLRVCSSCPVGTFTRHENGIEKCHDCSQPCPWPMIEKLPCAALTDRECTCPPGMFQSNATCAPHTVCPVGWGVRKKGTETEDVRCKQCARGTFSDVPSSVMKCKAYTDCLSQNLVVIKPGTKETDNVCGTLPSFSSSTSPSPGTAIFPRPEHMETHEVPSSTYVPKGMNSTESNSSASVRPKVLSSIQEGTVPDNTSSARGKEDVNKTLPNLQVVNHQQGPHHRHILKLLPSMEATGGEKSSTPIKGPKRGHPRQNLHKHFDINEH
Protocol: DR6 protein in 50 µL PBS (50 × 10^–9 M) was added into 96‐well plates. The 96‐well plates were incubated for 2 h at 37 °C, followed by drying overnight at 4 °C. Next day, the 96‐well plates were warmly washed three times with PBS, and then blocked by PBS containing 1% BSA for 1 h at 37 °C. The plates were washed three times with PBS. TCs were suspended in serum‐free DMEM at a density of 3 × 10^5 cells mL^–1; 50 µL of the cell suspension was added to wells coated with the DR6‐targeting peptides. Different concentrations of DR6‐targeting peptides or PBS were added into the plates. After incubation at 37 °C for 1 h, non‐adherent cells were gently washed away with PBS, fixed with 4% paraformaldehyde at room temperature for 30 min, washed, stained with 5% crystal violet 50 µL per well for 10 min, gently washed with PBS, and decolorized with 33% acetic acid. The attachment cell number was measured by a microplate reader.^[ ^53 ^]

[2] = Pharmacokinetic study after intravenous injection; format: in vivo; settings: SD rats, FITC-labeled
Protocol: To investigate the pharmacokinetic profile of AHP‐DRI‐12 and PEG‐tAHP‐DRI, SD rats were intravenously injected with FITC‐labeled AHP‐DRI‐12 and PEG‐tAHP‐DRI and blood samples were collected at 0.5, 1, 2, 4, 6, 24, 30, 48, 54, and 72 h. The DR6‐targeting peptide level of blood samples was measured by a microplate reader.

[3] = In vivo safety analysis in healthy mice; parameters: species or system C57BL/6 mice; settings: intravenous
Protocol: For evaluating the toxicity of peptides in vivo, 6 week old healthy mice were intravenously injected with AHP‐DRI‐12 and PEG‐tAHP‐DRI (0.2 µg g^–1 AHP‐DRI‐12). After 2 and 15 days, mice were sacrificed and serum samples were collected for the biochemical analysis (ALT, AST, BRU, and URE). Tissue samples from various organs were collected for tissue sections. The tissue sections were analyzed by H&E staining and immunohistochemistry analysis.

[4] = test system: 4T1 orthotopic tumor model; assay: Spontaneous lung metastasis of 4T1 orthotopic breast tumor model; format: in vivo, Balb/c female mice; settings: intravenous, 0.2 µg g^–1 AHP-DRI-12, every 2 days, 14 times; sacrificed day 30
Protocol: The spontaneous lung metastasis of orthotopic breast tumor model was established via injection of 4T1 cells into the fourth inguinal mammary gland of Balb/c female mice. The mice were intravenously injected with saline, AHP‐DRI‐12, and PEG‐tAHP‐DRI (0.2 µg g^–1 AHP‐DRI‐12), respectively, every 2 days for total of 14 times. Mice were sacrificed on day 30 and their lungs were collected for observation and histological analysis.

DR6 protein = target: T2, DR6 protein (Homo sapiens, UniProt O75509); assay: KD of DR6-targeting peptides for binding to DR6 protein by MST
T2 construct: purchased Sino Biology, Inc. (Shanghai, China)
T2 sequence (O75509 42-655): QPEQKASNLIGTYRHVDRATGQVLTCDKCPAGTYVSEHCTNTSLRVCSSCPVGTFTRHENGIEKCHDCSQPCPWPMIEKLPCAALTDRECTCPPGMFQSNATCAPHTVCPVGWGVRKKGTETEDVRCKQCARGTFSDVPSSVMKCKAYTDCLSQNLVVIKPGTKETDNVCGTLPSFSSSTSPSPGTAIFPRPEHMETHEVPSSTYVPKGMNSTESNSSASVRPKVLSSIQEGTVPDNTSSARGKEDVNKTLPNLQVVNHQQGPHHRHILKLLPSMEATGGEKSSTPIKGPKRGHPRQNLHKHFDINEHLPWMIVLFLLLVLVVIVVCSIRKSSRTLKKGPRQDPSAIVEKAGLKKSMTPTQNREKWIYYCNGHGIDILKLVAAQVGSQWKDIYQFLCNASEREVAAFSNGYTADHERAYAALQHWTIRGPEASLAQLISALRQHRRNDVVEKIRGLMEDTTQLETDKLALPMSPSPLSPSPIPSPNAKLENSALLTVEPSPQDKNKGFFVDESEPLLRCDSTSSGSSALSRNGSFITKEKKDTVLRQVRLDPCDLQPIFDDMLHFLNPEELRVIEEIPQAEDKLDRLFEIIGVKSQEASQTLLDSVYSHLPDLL
Protocol: For labeling DR6 protein with Red‐tris‐NTA second‐generation dye, equal volume of DR6 protein (200 × 10^–9 M) and dye (100 × 10^–9 M) were mixed. The solution was incubated for 30 min at room temperature and centrifuged for 10 min at 4 ℃ and 15 000 × g. The DR6 protein was labeled and ready for the binding assay. Prepare 25 µL of the DR6‐targeting peptides at 20 × 10^–6 M and add 10 µL of the PBS‐T into the PCR tubes 2–12. Transfer 20 µL DR6‐targeting peptides into the PCR tube 1 and then transfer 10 µL of the DR6‐targeting peptides from tube 1 to tube 2 with a pipette and mix by pipetting up and down multiple times. Transfer 10 µL to tube 3 and mix. Repeat the procedure for tube 4–12. Add 10 µL of labeled protein to each tube (1–12) and mix by pipetting. The final DR6 protein concentration was 50× 10^−9 M. Load the capillaries and measure the samples by NanoTemper Monolith NT.015.^[ ^51 , ^52 ^]

[5] = healthy C57BL/6 mice, day 2 or 15

Question: Which results are given for “PEG-tAHP-DRI: tetra-(D-retro-inverso isomer of AHP-12) substitued 4-arm PEG5k ([dP][dT][dT][dA][dD][dI][dT]C([maleimide-4‑arm PEG5k]); also: four peptides on one 4-arm PEG5k)”?
Answer: disruption of attachment between TCs and DR6-coated plates [1]: most obvious disruption of attachment; half-life (T1/2) ([2]; blood samples 0.5-72 h, microplate reader, n = 3): 11.1 h; area under the curve (AUC0-72) ([2]; compared with AHP-DRI-12): significantly larger; apoptotic cells in tissues, TUNEL staining [3, 5]: no obvious increase in apoptotic cells; damage to vessels, CD31 staining [3, 5]: could not cause damage to the vessels; downstream signaling pathway of DR6 (p-RIPK1, p-IκB-α, caspase 8 staining) [3, 5]: could not be impacted; damage to liver or kidney, blood biochemical indexes (ALT, AST, BRU, URE) ([3]; healthy mice, 0.2 µg g^–1 AHP-DRI-12, sacrificed day 2 or day 15): could not cause any damage to liver or kidney; spontaneous metastasis to lungs [4]: efficiently restrain spontaneous metastasis to lungs; Kd (DR6 protein; RED-tris-NTA labeled DR6 protein, final 50 × 10^−9 M, PBS-T, main text and Figure 2B-D, read-out: KD): ~50 nM; binding affinity to DR6 relative to AHP-DRI-12 (DR6 protein; from KD values): almost fourfold greater binding affinity
